Measurements taken from publication PMC2116304 (The Journal of Cell Biology, 1990).
Values joined by “and” are separate entries in the source; they are usually repeats but may differ in a detail not shown here. Identical values can stand only once. Blank lines part the entries; values can stand above or below the molecule they belong to.

What was measured:
[1] = target: K3 proteolytic fragment of the invariant chain (18,000 D, lumenal) (human); assay: cross-linking
[2] = target: the molecule itself; assay: SEC
[3] = target: the molecule itself; assay: non-reducing SDS-PAGE without cross-linker
[4] = target: the molecule itself; assay: cross-linking

stoichiometry N [1]: 3
Molecule: K3 proteolytic fragment of the invariant chain (18,000 D, lumenal) (domain or fragment)

B1: excess (class II-unassociated) invariant chain from Swei B-LCL (natural protein, human, UniProt P04233-2 1-232, looked up)
chain: MHRRRSRSCREDQKPVMDDQRDLISNNEQLPMLGRRPGAPESKCSRGALYTGFSILVTLLLAGQATTAYFLYQQQGRLDKLTVTSQNLQLENLRMKLPKPPKPVSKMRMATPLLMQALPMGALPQGPMQNATKYGNMTEDHVMHLLQNADPLKVYPPLKGSFPENLRHLKNTMETIDWKVFESWMHHWLLFEMSRHSLEQKPTDAPPKESLELEDPSSGLGVTKQDLGPVPM
modifications: [35S]methionine-labelled; N-linked glycans, endo H-sensitive
stoichiometry N [2]: 3

B2: invariant chain (from the class II-negative hybrid cell line 174xCEM.T2) (natural protein, human, UniProt P04233-2 1-232, looked up)
chain: MHRRRSRSCREDQKPVMDDQRDLISNNEQLPMLGRRPGAPESKCSRGALYTGFSILVTLLLAGQATTAYFLYQQQGRLDKLTVTSQNLQLENLRMKLPKPPKPVSKMRMATPLLMQALPMGALPQGPMQNATKYGNMTEDHVMHLLQNADPLKVYPPLKGSFPENLRHLKNTMETIDWKVFESWMHHWLLFEMSRHSLEQKPTDAPPKESLELEDPSSGLGVTKQDLGPVPM
modifications: N-linked glycans, endo H-sensitive; [35S]methionine-labelled in the affinity-purified samples
stoichiometry N [3]: 2
stoichiometry N [4]: 3 and 4 and 6
